Values quoted from earlier work in paper PMC4976022.

Molecular target: HPr (Escherichia coli) (UniProt P0AA04)

EIN N-terminal domain (from UniProt P08839)
Kd: 7 µM
